# Read-outs that look alike come from different tables or passages of the source.
# How the values were obtained:
# 14-3-3φ = 14-3-3φ (Arabidopsis thaliana, UniProt P19456+P46077); format: binding
# [1] = molecular target: FAM-labeled phosphopeptide derived from C-terminal AHA2 (FAM-TPSHYpTV) (Arabidopsis thaliana); assay: fluorescence polarisation
# [2] = molecular target: FAM-labeled phosphopeptide derived from C-terminal AHA2 (FAM-TPSHYpTV) (Arabidopsis thaliana); assay: fluorescence polarisation; remark: listed apart in the source
# [3] = molecular target: FAM-labeled phosphopeptide derived from C-terminal AHA2 (FAM-TPSHYpTV) (Arabidopsis thaliana); assay: fluorescence polarisation; remark: listed apart in the source
# [4] = molecular target: FAM-labeled phosphopeptide derived from C-terminal AHA2 (FAM-TPSHYpTV) (Arabidopsis thaliana); assay: fluorescence polarisation; remark: listed apart in the source
# Sequence of 14-3-3φ (P46077 whole entry, other chains not shown): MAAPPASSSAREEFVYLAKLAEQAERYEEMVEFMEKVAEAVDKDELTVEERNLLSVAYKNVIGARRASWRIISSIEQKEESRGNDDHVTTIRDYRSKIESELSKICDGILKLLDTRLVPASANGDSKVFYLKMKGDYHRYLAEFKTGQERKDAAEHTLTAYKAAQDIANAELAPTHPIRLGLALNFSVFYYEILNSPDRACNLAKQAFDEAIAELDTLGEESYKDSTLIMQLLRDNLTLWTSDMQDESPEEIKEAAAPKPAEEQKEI
Kd (14-3-3φ) [nM],Kd [1] [nM],Kd [2] [nM],Kd [3] [nM],Kd [4] [nM],Compound
150 ± 30,,,,,"C=CC(C)(C)OC[C@H]1O[C@H](O[C@@H]2C3=C([C@H](C)COC(C)=O)C[C@H](O)[C@]3(C)/C=C3/[C@@H](COC)CC[C@H]3[C@@H](C)[C@H]2O)[C@H](O)[C@@H](OC(C)=O)[C@@H]1O [FC-A, Fusicoccin-A]"
,890,150,530,160,recombinant Arabidopsis thaliana His-14-3-3φ (from UniProt P46077 1-267) (natural protein)
